Paper PMC4728340, “Structure of the polyisoprenyl-phosphate glycosyltransferase GtrB and insights into the mechanism of catalysis” (Nature Communications, 2016)
Residue numbers refer to the chain shown, from its start. Names may count otherwise.

B1: GtrB from Synechocystis sp. PCC6803 (enzyme, Synechocystis sp. PCC 6803, UniProt Q55487 1-318, looked up)
chain: MTIELSIVIPMYNEEDNLEHLFARLLEVLTPLKITYEIICVNDGSKDKTLKQLIDCYQSNRQIKIVNLSRNFGKEIALSAGIDYAQGNAVIPIDADLQDPPELIHELVDKWREGYDIVYATRRSRQGETWVKQFTAKMFYKVIGRMTEIKIPPNTGDFRLMDRKVVNAIKQLPERTRFMKGLFAWVGYRQTFVLFDREPRFQGQTKWNYWKLWNFALDGIFSFSLLPLKVWTYLGSIISLLSLAYASFLILKTITLGVDVPGYASLMVAILFLGGVQLISLGVIGEYLGRVYEEVKARPLYLVSDLWGLEYLPLEKLN
notes: GtrB, polyisoprenyl-phosphate glycosyltransferase, Synechocystis sp; PCC 6803, UniProt Q55487; open reading frame amplified from genomic DNA; a TEV protease cleavage site stands between the tag and the protein; Vector pMCSG7; A selenomethionine-substituted form was used for phasing only; In the deposited coordinates each protomer is divided into two chains; also called GtrBSyn; WT
B2: GtrB from Synechocystis sp. PCC6803, point mutant F215A (enzyme, Synechocystis sp. PCC 6803, UniProt Q55487 1-318, looked up)
chain: B1 chain with F215A
notes: GtrB, Synechocystis sp; PCC 6803, UniProt Q55487, same construct as m1 with the point mutation F215A (QuikChange); also called GtrB (F215A); source: E. coli, purified and crystallized in the same way as the wild type

Molecular target: the molecule itself
Assay: crystal structure; purified protein in n-decyl-beta-D-maltopyranoside (DM); sitting drop vapour diffusion at 22 °C, 16-18% PEG600, 0.12 M Tris/HCl pH 9.0, 0.1 M NaCl, 1 mM TCEP; crystals soaked with 5 mM MnCl2 and 25 mM UDP-glucose; space group C2, one tetramer in the asymmetric unit

Row | Protein | stoichiometry N | binding result
1 | B1 | 4 | 
2 | B2 |  | binds
